Paper PMC10889368, “Mesenchymal Transglutaminase 2 Activates Epithelial ADAM17: Link to G-Protein-Coupled Receptor 56 (ADGRG1) Signalling” (International Journal of Molecular Sciences, 2024)

T1: human C230-A TG2 mutant (oxidation resistant mutant of TG2) (human, UniProt P21980 1-687, C230A)
T1 construct: transglutaminase 2, human, with C230A; source: E. coli BL21(DE3pLysS), purified to homogeneity
T1 sequence (looked up): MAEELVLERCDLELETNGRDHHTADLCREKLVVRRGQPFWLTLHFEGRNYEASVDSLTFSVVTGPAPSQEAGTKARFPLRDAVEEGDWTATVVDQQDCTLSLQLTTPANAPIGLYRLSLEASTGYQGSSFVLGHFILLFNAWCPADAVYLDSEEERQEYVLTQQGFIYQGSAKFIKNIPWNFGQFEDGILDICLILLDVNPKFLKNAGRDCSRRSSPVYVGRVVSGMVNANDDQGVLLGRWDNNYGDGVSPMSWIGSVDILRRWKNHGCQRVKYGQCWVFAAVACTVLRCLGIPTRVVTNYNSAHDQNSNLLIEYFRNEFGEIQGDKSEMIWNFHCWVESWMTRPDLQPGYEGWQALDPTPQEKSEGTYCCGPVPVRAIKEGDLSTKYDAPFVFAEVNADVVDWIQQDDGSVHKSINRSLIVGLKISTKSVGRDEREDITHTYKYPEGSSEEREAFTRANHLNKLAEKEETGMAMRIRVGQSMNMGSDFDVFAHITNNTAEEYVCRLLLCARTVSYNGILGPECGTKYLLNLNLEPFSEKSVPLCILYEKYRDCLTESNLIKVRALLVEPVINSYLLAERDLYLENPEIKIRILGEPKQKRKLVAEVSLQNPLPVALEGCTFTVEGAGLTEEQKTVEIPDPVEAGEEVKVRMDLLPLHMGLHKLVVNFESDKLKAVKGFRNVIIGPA

T2: wild type murine TG2 (murine, UniProt P21981 1-686)
T2 construct: transglutaminase 2, mouse, wild type; construct not described
T2 sequence (looked up): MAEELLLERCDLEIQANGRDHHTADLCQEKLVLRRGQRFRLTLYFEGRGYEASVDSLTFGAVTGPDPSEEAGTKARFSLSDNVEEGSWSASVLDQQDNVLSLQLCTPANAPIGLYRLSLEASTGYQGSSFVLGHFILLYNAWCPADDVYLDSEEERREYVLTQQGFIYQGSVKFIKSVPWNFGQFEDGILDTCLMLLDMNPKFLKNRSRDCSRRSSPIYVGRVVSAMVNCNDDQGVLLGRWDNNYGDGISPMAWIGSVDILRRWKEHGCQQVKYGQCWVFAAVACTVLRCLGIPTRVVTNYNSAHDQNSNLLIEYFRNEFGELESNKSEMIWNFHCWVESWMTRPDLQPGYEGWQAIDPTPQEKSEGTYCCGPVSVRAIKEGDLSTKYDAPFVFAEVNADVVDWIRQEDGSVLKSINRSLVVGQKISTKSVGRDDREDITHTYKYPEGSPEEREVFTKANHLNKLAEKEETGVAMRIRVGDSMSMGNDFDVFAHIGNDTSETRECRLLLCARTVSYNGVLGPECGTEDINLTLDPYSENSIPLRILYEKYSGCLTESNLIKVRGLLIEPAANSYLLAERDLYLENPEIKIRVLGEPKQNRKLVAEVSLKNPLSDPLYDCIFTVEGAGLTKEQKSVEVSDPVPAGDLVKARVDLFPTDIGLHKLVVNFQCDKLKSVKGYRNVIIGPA

T3: human recombinant transglutaminase 2 (TG2), wild type (human, UniProt P21980 1-687)
T3 construct: transglutaminase 2, human; also called native TG2; wild type TG2; source: E. coli BL21(DE3pLysS), purified to homogeneity
T3 sequence (looked up): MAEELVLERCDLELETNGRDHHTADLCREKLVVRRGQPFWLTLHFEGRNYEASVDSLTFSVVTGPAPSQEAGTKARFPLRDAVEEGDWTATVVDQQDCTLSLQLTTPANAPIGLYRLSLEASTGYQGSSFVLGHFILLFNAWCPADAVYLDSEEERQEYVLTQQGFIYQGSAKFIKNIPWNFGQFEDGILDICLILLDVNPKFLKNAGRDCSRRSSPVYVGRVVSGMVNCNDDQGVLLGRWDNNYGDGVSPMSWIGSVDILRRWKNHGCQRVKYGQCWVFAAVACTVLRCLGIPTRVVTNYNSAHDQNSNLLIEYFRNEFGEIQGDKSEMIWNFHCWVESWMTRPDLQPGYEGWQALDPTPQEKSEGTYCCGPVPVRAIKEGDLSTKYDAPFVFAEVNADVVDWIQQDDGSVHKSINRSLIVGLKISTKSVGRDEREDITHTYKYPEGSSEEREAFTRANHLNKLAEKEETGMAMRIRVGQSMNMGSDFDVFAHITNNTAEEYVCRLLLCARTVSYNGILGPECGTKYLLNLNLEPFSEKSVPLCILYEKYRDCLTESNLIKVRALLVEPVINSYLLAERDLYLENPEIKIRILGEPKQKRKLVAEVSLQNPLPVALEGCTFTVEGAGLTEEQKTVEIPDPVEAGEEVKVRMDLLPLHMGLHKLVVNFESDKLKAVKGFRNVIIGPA

T4: C277S-TG2 (catalytically deficient TG2 C277S mutant) (human, UniProt P21980 1-687, C277S)
T4 construct: transglutaminase 2 with C277S; the results call the analyte of the kinetic studies human TG2; Incubated with 10 mM DTT for 10 min and re-buffered into HBS before SPR; source: E. coli BL21(DE3pLysS), purified to homogeneity
T4 sequence (looked up): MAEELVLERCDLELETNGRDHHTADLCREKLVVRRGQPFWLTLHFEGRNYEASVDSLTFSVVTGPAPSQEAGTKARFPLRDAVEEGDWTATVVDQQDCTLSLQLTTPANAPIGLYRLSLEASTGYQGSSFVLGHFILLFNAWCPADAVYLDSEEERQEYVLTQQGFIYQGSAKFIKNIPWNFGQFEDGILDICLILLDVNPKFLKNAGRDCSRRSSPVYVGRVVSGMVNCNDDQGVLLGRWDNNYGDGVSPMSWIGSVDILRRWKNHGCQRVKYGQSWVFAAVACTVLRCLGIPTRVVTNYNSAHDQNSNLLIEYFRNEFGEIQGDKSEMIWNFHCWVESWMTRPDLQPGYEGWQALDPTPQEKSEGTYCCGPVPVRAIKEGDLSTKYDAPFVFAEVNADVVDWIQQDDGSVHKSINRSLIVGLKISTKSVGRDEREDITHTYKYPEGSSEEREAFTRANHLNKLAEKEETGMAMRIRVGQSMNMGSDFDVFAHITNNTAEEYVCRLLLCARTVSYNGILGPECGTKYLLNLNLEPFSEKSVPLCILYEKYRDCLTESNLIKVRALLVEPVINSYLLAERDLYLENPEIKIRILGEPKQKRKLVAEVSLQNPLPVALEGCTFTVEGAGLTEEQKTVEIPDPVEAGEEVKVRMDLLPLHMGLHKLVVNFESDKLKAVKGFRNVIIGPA


Assays:
GPR56 (Mus musculus) = GPR56 (Mus musculus) (UniProt Q8K209); conditions: cited from earlier work
Sequence of GPR56 (Mus musculus) (Q8K209 26-382): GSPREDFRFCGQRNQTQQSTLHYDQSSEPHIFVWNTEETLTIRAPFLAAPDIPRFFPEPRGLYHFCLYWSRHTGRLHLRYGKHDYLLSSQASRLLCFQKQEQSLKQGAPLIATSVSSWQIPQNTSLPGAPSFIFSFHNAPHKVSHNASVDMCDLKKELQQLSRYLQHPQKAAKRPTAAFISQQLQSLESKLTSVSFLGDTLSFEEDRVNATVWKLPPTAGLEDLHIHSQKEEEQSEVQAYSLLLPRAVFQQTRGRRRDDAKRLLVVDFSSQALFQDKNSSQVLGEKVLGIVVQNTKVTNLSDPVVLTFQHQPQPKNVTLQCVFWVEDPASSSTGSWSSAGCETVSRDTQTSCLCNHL

[1] = target: T1, human C230-A TG2 mutant (oxidation …); experiment: pull-down; N-GPR56-Fc fusion proteins from CHO conditioned medium held on protein G-Sepharose beads, washed (20 mM Tris/HCl, pH 7.4, 150 mM NaCl), incubated with TG2 (50 µg/mL) in 50 µL overnight at 4 °C; eluted with 0.1 M glycine/HCl pH 2.5; Western blot; conditions: both partners purified
wild type murine TG2 = target: T2, wild type murine TG2; experiment: as above; conditions: both partners purified
[2] = target: T3, human recombinant transglutaminase 2 …; experiment: as above; conditions: both partners purified
[3] = target: T4, C277S-TG2 (catalytically deficient TG2 …); experiment: SPR; BIAcore T200, protein A sensor chip; 270-320 RU of 1-382 N-GPR56-Fc fusion protein, or conditioned medium containing it (1:10 in HBS), captured; C277S-TG2 (DTT treated) as analyte, 8 serial dilutions; 25 °C, HBS (10 mM Hepes pH 7.4, 0.15 M NaCl, 3 mM EDTA, 0.005% P20), 30 µL/min; with 20 mM Ca2+; equilibrium analysis; conditions: both partners purified

binding result [1] | binding result (wild type murine TG2) | binding result [2] | Kd [3] | Molecule | Kd (GPR56 (Mus musculus))
 |  |  |  | TG2 (from UniProt P21981) | 330 nM
binds | binds | binds | ~1200 nM | 1-382 N-GPR56-Fc fusion protein (Fc fusion, human, UniProt Q9Y653 26-382, looked up, signal peptide in the construct; Fc retains the cysteine residues for dimerization; The limits 1-382 are printed for the SPR; also called human N-GPR56; source: CHO cells, transfected; conditioned medium, purified on protein G-Sepharose, or conditioned medium used directly; not shown: Fc (human IgG1 heavy chain, amino acids 3-236), C-terminal, kept) RGHREDFRFCSQRNQTHRSSLHYKPTPDLRISIENSEEALTVHAPFPAAHPASRSFPDPRGLYHFCLYWNRHAGRLHLLYGKRDFLLSDKASSLLCFQHQEESLAQGPPLLATSVTSWWSPQNISLPSAASFTFSFHSPPHTAAHNASVDMCELKRDLQLLSQFLKHPQKASRRPSAAPASQQLQSLESKLTSVRFMGDMVSFEEDRINATVWKLQPTAGLQDLHIHSRQEEEQSEIMEYSVLLPRTLFQRTKGRSGEAEKRLLLVDFSSQALFQDKNSSQVLGEKVLGIVVQNTKVANLTEPVVLTFQHQLQPKNVTLQCVFWVEDPTLSSPGHWSSAGCETVRRETQTSCFCNHL | 
